Reference: patent US20250206839A1, “METHODS, COMPOSITIONS AND USES FOR SEMA7A MONOCLONAL ANTIBODIES” (THE REGENTS OF THE UNIVERSITY OF COLORADO, A BODY CORPORATE, priority 2022, published 2025)
Entries after “also recorded” stand apart in the source; their conditions may differ.

What was measured:
[1] = system: MCF7 cells; experiment: Cell viability, crystal violet, 48 h; format: cell-based, human; conditions: MCF7, 500 nM SmAbH1 vs 8 nM Fulvestrant
Procedure: (§1) For proliferation assays, cells were plated at 2000 cells per well of a 96-well dish. Four pictures of different regions in each well were taken every four hours for 48 h using an IncuCyte ZOOM (Essen BioScience, Ann Arbor, MI, USA). Percent confluence was determined using the IncuCyte ZOOM software (Essen BioScience). 66cl4 Sema7A DDK cells were plated in a 96-well plate in triplicate at 1,500 cells/well. They sat down over 24 hours and then were treated with 1000 nM IgG control, 10 nM SmAbH1, 100 nM SmAbH1, 200 nM SmAbH1, 500 nM SmAbH1, or 1000 nM SmAbH1. The plate was promptly transferred to the IncuCyte where photos were taken and analyzed every 4 hours for 7 days. For additional treatment studies in MCF7, TC11 and SSM2 cells ([…]) were plated in a 24-well plate in complete media and allowed to sit down over 24 hours. At 24 hours after plating, cells were treated with 500 nM IgG control, 500 nM SmAbH1, 8 nM Fulvestrant or the combination. The plate was incubated at 37 C for 48 hours, then fixed with 10% NBF and stained with crystal violet.

[2] = system: 66cl4 Sema7A DDK cells; experiment: IncuCyte percent confluence time course; format: cell-based, mouse
Procedure: as §1

[3] = target: T1, purified SEMA7A (Homo sapiens, UniProt O75326); experiment: ELISA binding to purified SEMA7A; conditions: serial dilution
T1 construct: Fc; made in house; host or cells: cells stably transfected with SEMA7A-Fc plasmid (human breast cancer cells); purified from medium
T1 sequence (O75326 45-648 limits assumed): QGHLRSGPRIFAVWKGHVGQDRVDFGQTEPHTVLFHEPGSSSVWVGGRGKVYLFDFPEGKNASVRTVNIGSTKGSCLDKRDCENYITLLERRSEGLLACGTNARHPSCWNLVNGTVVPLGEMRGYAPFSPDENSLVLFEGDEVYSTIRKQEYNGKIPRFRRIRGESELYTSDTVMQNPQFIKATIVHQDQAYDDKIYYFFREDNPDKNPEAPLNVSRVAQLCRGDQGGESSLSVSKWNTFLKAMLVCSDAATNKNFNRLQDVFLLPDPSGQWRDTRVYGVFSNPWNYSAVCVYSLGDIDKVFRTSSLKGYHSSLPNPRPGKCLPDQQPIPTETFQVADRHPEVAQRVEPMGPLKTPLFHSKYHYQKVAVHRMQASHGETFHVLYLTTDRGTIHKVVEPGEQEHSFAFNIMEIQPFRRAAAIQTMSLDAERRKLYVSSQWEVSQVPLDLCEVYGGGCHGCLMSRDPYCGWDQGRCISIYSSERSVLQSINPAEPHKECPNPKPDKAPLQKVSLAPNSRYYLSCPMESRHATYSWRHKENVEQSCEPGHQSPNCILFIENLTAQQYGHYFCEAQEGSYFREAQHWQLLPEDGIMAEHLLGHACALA
Procedure: The MultiSorp ELISA 96 well ELISA plate (Thermo Scientific) was coated with 100 μl per well of 50 μg/ml of purified SEMA7A in Coating Buffer A (Thermo Scientific CB07100) and allowed to attach overnight with gentle rocking at 4 degrees. For the peptide competition, half of the antibody was incubated in an Eppendorf tube overnight at a ratio of 1:10 with the SEMA7A peptide on a rotator at 4 degrees. The plate was washed with 200 μl per well of 1× wash buffer (Thermo Scientific WB01) and blocked with 200 μl 1× assay buffer (Thermo Scientific DS98200) for 2 hours and room temp with gentle rocking. 1× assay buffer was removed and a 200 μl serial dilution of SMEA7A mAb in 1× assay buffer was made from columns 1 through 9, with column 10-12 getting 1× assay buffer only. The plate was incubated overnight with gentle rocking at 4 degrees. The plate was washed twice with 200 μl of 1× wash buffer. 100 μl of 200 ng/ml Goat Anti-Mouse IgG HRP (Abcam 97040) in 1× assay buffer was added to columns 1-11, with column 12 getting 1× assay buffer only. The plate was incubated for 2 hours with gentle rocking at room temp. The plate was washed four times with 200 μl 1× wash buffer. 150 μl SuperSignal Femto for ELISA (Thermo Scientific) was mixed 1:1 added to each well and mixed for 1 min and then left to rock at room temperature for 30 minutes. The absorbance was read at 425 nm on a microplate reader.

[4] = system: human breast cancer MCF7A SEMA7A overexpressing cells; experiment: Immunofluorescence labeling of TAPI-1 treated SEMA7A overexpressing cells; format: cell-based; conditions: antibody 250:1, FITC secondary, cells treated with TAPI-1
Procedure: In another exemplary method, the ability of anti-SEMA7A monoclonal antibodies to bind and label cells was tested. In an exemplary method, human breast cancer MCF7A SEMA7A overexpressing cells were treated with TAPI-1, a TACE/ADAM17 inhibitor that blocks SEMA7A shedding from the cell surface, and then incubated with an anti-SEMA7A monoclonal antibody (250:1) before visualization with a FITC secondary antibody (1000:1).
Cells were fixed with 2% PFA or 1:1 acetone-methanol for 30 minutes at 4C, before washing once with PBS and blocking with 1% BSA in PBST for 1 hour at room temperature. After removal of the blocking solution, cells were incubated in primary antibody in 1% BSA in PBST overnight at 4° C. The primary antibody (SmAbH1 (lot 022823) was prepared at a 1:250 concentration by adding 4 μL stock solution to ImL 1% BSA in PBS. After primary removal cells were washed with PBS for 10 min×3 and incubated in secondary antibody in 1% BSA in PBS for 1-2 hours at room temperature (covered from light). The secondary antibody (Donkey anti-Mouse IgG Alexa Fluor 488 (Invitrogen A-21202)) was prepared at 1:1000 concentration by adding 1 μL into ImL 1% BSA in PBS. After removal of secondary antibody cells were washed with PBS for 10 min×3. VECTASHIELD Antifade Mounting Medium with DAPI (Vector Labs H-1200-10) was added and the cells were sealed with a glass coverslip. […]

[5] = system: SEMA7A isoforms; experiment: Western blot recognition of SEMA7A isoforms; format: binding

B1: SmAbH1: mouse monoclonal antibody against SEMA7A generated using the 10-mer immunizing peptide … (SEQ ID NO: 2) (antibody, V domains shown)
VH: QVKLQESGTVLARPGASVKMSCKASVYSFTSYWMHWVKQRPGQGLEWIGAIYPGNSDTSYNQKFKGKAKLTAVTSASTAYMELSSLTNEDSAVYYCTRGGAPTMITAYYAMDYWGQGTSVTVSS
VL: DIQMTQTTSSLSASLGDRVTISCRASQDISNYLNWYQQKPDGTVKLLIYYTSRLHSGVPSRFSGSGSGTDYSLTISNLEQEDIATYFCQQGNTLPWTFGGGTKLEIKR
Question: Which results are given for B1?
Answer: cell viability compared to fulvestrant [1]: more significantly reduced; viability / percent confluence over time ([2]; 66cl4, 10-1000 nM SmAbH1, 7 days): decreased viability; also recorded: dose dependency; decrease of cellular confluence compared to commercially available SEMA7A directed antibodies ([2]; 66cl4 DDK and DDK SEMA7A cells, vs SC-374432 and Ab23578): greater than commercially available; binding to purified SEMA7A [3]: bound to purified SEMA7A in a dose dependent manner; labeling of cells [4]: labeled the cell lines treated with TAPI-I; recognition of SEMA7A isoforms [5]: recognition of all three isoforms of SEMATA
